Assay results as given in US9988424 (DUKE UNIVERSITY, dated 2018).

Tests used:
[1] = target: T1, AE.A244 V1/V2 tags, natively deglycosylated (HIV-1); experiment: ELISA
T1 construct: also called AE.A244V1V2 tags Degly

gp70 B.CaseA2 V1/V2 = target: T2, gp70 B.CaseA2 V1/V2 (HIV-1 V1V2 on murine leukemia virus gp70); experiment: ELISA
T2 construct: also called B.gp70CaseA2 V1/V2; gp70 B.CaseAV1V2
T2 chain: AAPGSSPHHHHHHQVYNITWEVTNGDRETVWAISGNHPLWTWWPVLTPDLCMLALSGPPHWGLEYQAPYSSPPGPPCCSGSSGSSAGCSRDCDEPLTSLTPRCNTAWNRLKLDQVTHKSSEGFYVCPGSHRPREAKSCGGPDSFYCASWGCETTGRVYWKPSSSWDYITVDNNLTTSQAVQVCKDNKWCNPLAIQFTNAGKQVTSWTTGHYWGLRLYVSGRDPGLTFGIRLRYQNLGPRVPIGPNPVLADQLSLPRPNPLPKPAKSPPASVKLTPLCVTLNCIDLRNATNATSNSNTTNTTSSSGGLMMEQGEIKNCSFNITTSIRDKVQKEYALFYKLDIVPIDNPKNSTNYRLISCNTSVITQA

Con 6 gp120 [2] = experiment: ELISA, OD405 at 10 ug/ml
AE.A244 V1V2 Tags = AE.A244 V1V2 Tags (HIV-1); experiment: ELISA, OD405 at 10 ug/ml
B.040 gp140C [3] = experiment: ELISA, OD405 at 10 ug/ml
gp70 C.1086 V1/V2 = target: T3, gp70 C.1086 V1/V2 (HIV-1 V1V2 on murine leukemia virus gp70); experiment: ELISA, OD405 at 10 ug/ml
T3 construct: also called C.gp70 1086C V1V2; C.1086gp70V1V2
T3 chain: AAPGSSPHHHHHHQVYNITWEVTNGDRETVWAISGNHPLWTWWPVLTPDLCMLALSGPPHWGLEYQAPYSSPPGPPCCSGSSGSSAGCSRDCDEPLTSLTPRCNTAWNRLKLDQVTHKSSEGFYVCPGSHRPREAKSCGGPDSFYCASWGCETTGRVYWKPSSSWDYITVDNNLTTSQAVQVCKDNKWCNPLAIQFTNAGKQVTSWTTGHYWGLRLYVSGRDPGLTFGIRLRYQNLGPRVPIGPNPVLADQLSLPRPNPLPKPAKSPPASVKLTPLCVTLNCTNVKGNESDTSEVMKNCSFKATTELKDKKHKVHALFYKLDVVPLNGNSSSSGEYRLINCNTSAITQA

B.con gp140CF = experiment: ELISA, OD405 at 10 ug/ml
B.HXB/BAL gp140CFI [4] = target: T4, B.HXB/BAL gp140CFI (HIV-1, UniProt P04578 33-680); experiment: ELISA, OD405 at 10 ug/ml
T4 construct: also called B.HxB/Ba gp140 CFI

C.1086 gp140 = target: T5, C.1086 gp140; experiment: ELISA, OD405 at 10 ug/ml
T5 construct: also called C.1086gp140C

SIV CPZ US-1 gp140CF [5] = target: T6, SIV CPZ US-1 gp140CF (SIVcpz); experiment: ELISA, OD405 at 10 ug/ml
T6 construct: also called US-1 SIVCPZ gp140CF
T6 chain: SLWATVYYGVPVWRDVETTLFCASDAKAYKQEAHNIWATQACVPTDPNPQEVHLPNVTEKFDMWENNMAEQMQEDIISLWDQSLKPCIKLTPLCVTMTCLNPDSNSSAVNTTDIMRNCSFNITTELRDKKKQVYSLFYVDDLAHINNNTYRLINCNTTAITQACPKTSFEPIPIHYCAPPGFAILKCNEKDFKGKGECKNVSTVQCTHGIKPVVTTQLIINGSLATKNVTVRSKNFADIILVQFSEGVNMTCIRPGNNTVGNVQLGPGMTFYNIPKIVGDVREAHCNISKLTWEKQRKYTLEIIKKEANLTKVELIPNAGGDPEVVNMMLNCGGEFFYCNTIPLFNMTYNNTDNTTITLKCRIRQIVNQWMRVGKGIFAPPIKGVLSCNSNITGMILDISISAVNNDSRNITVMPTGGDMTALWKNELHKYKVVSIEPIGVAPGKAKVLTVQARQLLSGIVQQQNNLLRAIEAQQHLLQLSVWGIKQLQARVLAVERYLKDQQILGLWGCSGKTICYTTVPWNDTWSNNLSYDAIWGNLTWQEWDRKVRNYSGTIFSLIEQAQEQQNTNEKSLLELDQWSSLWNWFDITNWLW

C.1086 V1V2 Tags = C.1086 V1V2 Tags (HIV-1); experiment: ELISA, OD405 at 10 ug/ml
92TH023 gp120 = 92TH023 gp120 (HIV-1)
B.63521 gp140C = experiment: ELISA, OD405
B.63521_V1V2 Tags = target: T7, B.63521_V1V2 Tags; experiment: ELISA, OD405
T7 Env construct: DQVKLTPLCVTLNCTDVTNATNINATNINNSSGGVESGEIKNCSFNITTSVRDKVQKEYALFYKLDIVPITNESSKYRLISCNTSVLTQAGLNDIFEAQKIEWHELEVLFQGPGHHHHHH

B.62357 140C = target: T8, B.62357 140C; experiment: ELISA, OD405
T8 construct: also called B.62357 gp140C

B.HXB/BAL gp140CFI [6] = target: T4, B.HXB/BAL gp140CFI; experiment: ELISA, OD405
SIV CPZ US-1 gp140CF [7] = target: T6, SIV CPZ US-1 gp140CF; experiment: ELISA, OD405
Con 6 gp120 [8] = experiment: ELISA, OD405
B.040 gp140C [9] = experiment: ELISA, OD405
B. 681-7 gp140C = experiment: ELISA, OD405
G.con gp140CF = target: T9, G.con gp140CF; experiment: ELISA, OD405
T9 construct: also called G.con.env03 gp140CF

B. 684-6 gp140C = experiment: ELISA, OD405

B1: 697D (antibody, V domains shown)
VH: QVQLVQSGAEVKKPGSSVKVSCKASGGNFNTYTISWVRQAPGQGLEWMGRIIPIFGIVNPAQKFPGRVTINVDKSTNTAYMELSSLRSEDTAVYYCATSGVGLHFGYFDYWGQGTQVTVSS
VL: QSVLTQPPSVSGAPGQRVTISCTGSSSNIGAHYDVHWYQQLPGTAPKLLIYGNSNRPSGVPDRFSGSKSGTSASLAITGLQAEDEADYYCQSYDSSLSGYVFGTGTKVTVL
notes: also called mAb 697D; V2 conformational mAb 697D
6 fold: fold decrease of binding against the glycosylated protein [1]
0.04 µg/mL: EC50 (gp70 B.CaseA2 V1/V2)

B2: PG9 reverted unmutated ancestor antibody (antibody, V domains shown)
VH: QVQLVESGGGVVQPGRSLRLSCAASGFTFSSYGMHWVRQAPGKGLEWVAVISYDGSNKYYADSVKGRFTISRDNSKNTLYLQMNSLRAEDTAVYYCAREAGGPDYRNGYNYYDFWSGYYNYYYMDVWGKGTTVTVSS
VL: QSALTQPASVSGSPGQSITISCTGTSSDVGSYNLVSWYQQHPGKAPKLMIYEVSKRPSGVSNRFSGSKSGNTASLTISGLQAEDEADYYCCSLTSTRRWVFGGGTKLTVL
notes: also called PG9 RUA; PG9_RUA
no binding (tested: 10 ug/ml): binding result (Con 6 gp120 [2]) | binding result (AE.A244 V1V2 Tags) | binding result (B.040 gp140C [3]) | binding result (gp70 C.1086 V1/V2) | binding result (B.con gp140CF) | binding result (B.HXB/BAL gp140CFI [4]) | binding result (C.1086 gp140) | binding result (SIV CPZ US-1 gp140CF [5]) | binding result (C.1086 V1V2 Tags)

B3: PG16 (antibody, V domains shown)
VH: QEQLVESGGGVVQPGGSLRLSCLASGFTFHKYGMHWVRQAPGKGLEWVALISDDGMRKYHSDSMWGRVTISRDNSKNTLYLQFSSLKVEDTAMFFCAREAGGPIWHDDVKYYDFNDGYYNYHYMDVWGKGTTVTVSS
VL: QSALTQPASVSGSPGQTITISCNGTSSDVGGFDSVSWYQQSPGKAPKVMVFDVSHRPSGISNRFSGSKSGNTASLTISGLHIEDEGDYFCSSLTDRSHRIFGGGTKVTVL
notes: also called mAb PG16; bnAb PG16
10 to 100 nM: IC50 (92TH023 gp120)

B4: CH59 (antibody, V domains shown)
VH: EVQLVESGGGLVQPGRSLRLSCAASGFTFDDGAMHWVRQAPGKGLEWVSGISWNSNIIAYADSVKGRFTISRDNAKNSLYLEMNSLRVEDTALYYCAKDSPRGELPLNYWGQGTLVTVSS
VL: SYELTQPPSVSVSPGQTARITCSGDALPKNYAYWYQQKSGQAPVLVIYEDSKRPSGIPERFSGSSSGTMATLTISGAQVEDEADYYCYSTDSSGNHRVFGGGTKLTVL
notes: also called mAb CH59
no binding (tested: 10 ug/ml): binding result (B.63521 gp140C) | binding result (B.63521_V1V2 Tags) | binding result (B.62357 140C) | binding result (B.HXB/BAL gp140CFI [6]) | binding result (SIV CPZ US-1 gp140CF [7]) | binding result (Con 6 gp120 [8]) | binding result (B.040 gp140C [9]) | binding result (B. 681-7 gp140C) | binding result (G.con gp140CF) | binding result (B. 684-6 gp140C)
